One substance from paper PMC11856660 (PLOS Pathogens, 2025) can be followed below.

One may read the stoichiometry N as the number of molecules, sites or subunits per partner or assembly.

This assay concerns the target HCoV-229E nsp15 protein, H250A mutant (recombinant, hexameric) (human coronavirus 229E (HCoV-229E)). Kind of assay: […] (25 mM HEPES pH 8, 300 mM NaCl, 10% glycerol, 1 mM TCEP); […]; 20 °C; […].

For the substance “HCoV-229E nsp15 protein, H250A mutant (recombinant, hexameric) (enzyme)”, the percent hexameric is > 98% and the stoichiometry N is 6.
